Measurements from PMC6468306 (Nucleic Acids Research, 2019).
Where a chain is given by its changes, count along the chain named. Names and notes keep the numbering of the source. Like-named read-outs stand apart in the source and are kept apart here.

B1: GST-fused CSB C-terminal region (residues 1386-1493) (domain or fragment)
chain: SSSLLAKMRARNHLILPERLESESGHLQEASALLPTTEHDDLLVEMRNFIAFQAHTDGQASTREILQEFESKLSASQSCVFRELLRNLCTFHRTSGGEGIWKLKPEYC
B2: GST-fused CSB C-terminal region (residues 1412-1493) (domain or fragment)
chain: LQEASALLPTTEHDDLLVEMRNFIAFQAHTDGQASTREILQEFESKLSASQSCVFRELLRNLCTFHRTSGGEGIWKLKPEYC
B3: GST-fused CSB WHD (residues 1401-1493), wild type (domain or fragment)
chain: LPERLESESGHLQEASALLPTTEHDDLLVEMRNFIAFQAHTDGQASTREILQEFESKLSASQSCVFRELLRNLCTFHRTSGGEGIWKLKPEYC
B4: CSB WHD (residues 1401-1493) with the Q1413R variant allele, GST cleaved (domain or fragment)
chain: B3 chain with Q13R
B5: GST-fused CSB WHD, Q1413R variant allele (domain or fragment)
chain: B3 chain with Q13R

Legend:
[1] = molecular target: T1, ubiquitin (Ub) (mouse, UniProt P0CG49 1-76); assay: pull-down
[2] = molecular target: T1, ubiquitin (Ub); assay: SPR
[3] = molecular target: M1-linked diUb (M1-Ub2) (human, UniProt P0CG47); assay: pull-down
[4] = molecular target: T1, ubiquitin (Ub); assay: SPR; remark: listed apart in the source
[5] = molecular target: K48-Ub2 synthesized from K48R Ub and D77 Ub (for crystallization) (mouse, UniProt P0CG49, K48R | D77); assay: crystal structure

Binder | binding result [1] | Kd [4] | further results
B1 | binds | – | –
B2 | binds | – | –
B3 | – | 35.6 µM | Kd [2]: 36.1 µM; binding result [3]: binds
B4 | – | – | binding result [5]: binds
B5 | – | 51.5 µM | –
